Target: human c-Src kinase domain (residues 260-528) (human) (UniProt P12931)

B1: Src Consensus peptide Ac-…-NH2 (peptide)
peptide: Ac-GPDECIYDMFPFKKKG-NH2
- KM (μM) of phosphorylation, Michaelis-Menten analysis, ADP-Quest assay: 196 µM

Reference: paper PMC10065799, “High-throughput profiling of sequence recognition by tyrosine kinases and SH2 domains using bacterial peptide display” (eLife, 2023)
